Laboratory results: publication PMC9765456

Target: AP2-μ2 (plasmid-encoded: μ2-HA; μ2-myc in AP2 core and hemicomplex) (UniProt P84092)
Test: anti-FLAG co-IP, Western blot
Conditions: reference: wild type; sites S31,S32

In the case of “HPV-16 E7 (from UniProt P03129) S31A/S32A”, the “binding against the reference” value was “weaker”.
